Where a chain is given by its changes, count along the chain named.

T1: human NKG2D expressed on cells (human, UniProt P26718 1-216)
T1 construct: the cell type is named under assay; also called NKG2D on NK92 cells; HEK293T human NKG2D
T1 chain: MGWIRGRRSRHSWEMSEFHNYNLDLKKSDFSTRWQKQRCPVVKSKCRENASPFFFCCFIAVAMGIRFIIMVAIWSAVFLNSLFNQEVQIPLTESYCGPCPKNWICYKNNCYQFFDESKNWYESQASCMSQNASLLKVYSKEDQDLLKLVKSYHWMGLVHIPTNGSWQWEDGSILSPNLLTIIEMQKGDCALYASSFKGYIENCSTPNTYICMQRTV

B1: anti-NKG2D antibody clone 320 (antibody, V domains shown)
VH: EVQLLESGGGLVQPGGSLRLSCATSGFTFSDYAMSWVRQAPGKGLEWVSYNSFSVGSTDYADSVKGRFTISRDNSKNTLYLQMNSLRAEDTAVYYCSKHSGNYYTGPFHYWGQGTLVTVSS
VL: DIQLTQSPSFLSASVGDRVTITCRASQGISSYLAWYQQKPGKAPKLLIYAASSLESGVPSRFSGSGSGTDFTLTISSLQPEDFATYYCQQSYSTPITFGQGTRLEIK
notes: From transgenic rabbits; also called 320 IgG
B2: anti-NKG2D antibody 5C5 (IgG) (antibody, V domains shown)
VH: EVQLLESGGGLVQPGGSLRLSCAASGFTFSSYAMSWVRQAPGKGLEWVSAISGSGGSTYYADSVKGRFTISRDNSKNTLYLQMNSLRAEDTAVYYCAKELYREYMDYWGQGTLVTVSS
VL: SSELTQDPAVSVALGQTVRITCQGDSLRSYYASWYQQKPGQAPVLVIYGKNNRPSGIPDRFSGSSSGNTASLTITGAQAEDEADYYCNSRDSFSIHQNVFGGGTKLTVL
notes: also called clone 5C5
B3: anti-NKG2D antibody clone 395 (antibody, V domains shown)
VH: QEQLEQSGGGLVTPGGSLKLCCTASGFDFNTFWMTWVRQAPGKGLEWIGCIHGGSGSRDYASWVNGRFTLSRDIDQSTACLQVNSLTAADTAMYYCARPGYRSWSKTFDLWGQGTMVTVSS
VL: DIQMTQSPSSLSASVGDRVTITCRASQDISGALNWYQQKPGKAPNLLIYAASSLQSGVPSRFSGSGSGTDYTLTISSLQPEDFATYYCQQANSFPLTFGGGTKVEIK
notes: From transgenic rabbits; rabbit VH, human VL
B4: anti-NKG2D antibody clone 230 (antibody, V domains shown)
VH: QQLEQSGGGLVKPGGSLELCCIASGFDFSTYWMTWVRQAPGKGLEWIGCIHGGGSGTTSYASWVNGRFTLSRDIDQSTGCLQLTSLTAADTAMYYCARPGYRSWSKTFDLWGQGTMVTVSS
VL: B3 VL with R24Q, S26N, G31N, N45K, Y71F, T85A, N92A
notes: From transgenic rabbits
B5: anti-NKG2D antibody clone 296 (antibody, V domains shown)
VH: EVQLLESGGGLVQPGGSLRLSCAASGFTFSSYAMSWVRQAPGKGLEWVSAIGIGGGGTYYADSVKGRFTISRDNSKNTLYLQMNSLRAEDTAVYHCAKGASFDFINFFPYWGQGTLVTVSS
VL: B3 VL with D28G, G31N, A32D, N34A, N45K, Y71F, A91T, N92Y, F94T
notes: From transgenic rabbits
B6: anti-NKG2D antibody clone 013 (antibody, V domains shown)
VH: EQSGGGAGGGLVKPGGSLELCCKASGFDFSIYWMSWVRQSPGKGLEWIGRIYGGSSDYTAYASWVNGRFTLSRDIDQSTGCLQLNSLTAADTAMYYCVRLNPSFSRSFDYWGQGTLVTVSS
VL: DIQMTQSPSSVSASVGDRVTITCRASQGIFSWLVWYQQKPGKAPELLMYGASTLQSGVPSRFSGSGSGTDFTLTISSLQPEDFATYYCQQGYSTPYTFGQGTKVEIK
notes: From transgenic rabbits
B7: anti-NKG2D antibody clone 018 (antibody, V domains shown)
VH: QQLEQSGGGLVTPGGSLKVCCKASGFDFTTYWMTWVRQAPEKGLEWIGCIHGGDSGATYYANWVNGRFTLSRDIDQSTGCLQLNSLTAADTAMYYCARPGYPSWSKTFDLWGQGTMVTVSS
VL: B3 VL with R24Q, G31N, N45K, S53T, Y71F, Q90H, A91S
notes: From transgenic rabbits
B8: anti-NKG2D antibody clone 001 (antibody, V domains shown)
VH: B4 VH with K12T, E18K, A23G, S29N, G54S, T57S, S59Y, L83V, T84N
VL: B3 VL with G31E, A32S, N45K
notes: From transgenic rabbits
B9: anti-NKG2D antibody 13C6 (IgG) (antibody, V domains shown)
VH: EVQLVQSGAEVKKPGESLKISCKGSGYSFTSYWIGWVRQMPGKGLEWMGIIYPGDSDTRYSPSFQGQVTISADKSISTAYLQWSSLKASDTAMYYCARLYPVGVYFDYWGQGTLVTVSS
VL: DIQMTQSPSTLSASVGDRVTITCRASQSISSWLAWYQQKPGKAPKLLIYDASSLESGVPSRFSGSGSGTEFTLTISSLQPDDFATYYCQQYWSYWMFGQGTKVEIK
notes: also called clone 13C6

One assay addresses T1, human NKG2D expressed on cells. Kind of assay: flow cytometry; expanded human γδ T cells. The protocol:
Viability of expanded γδ T cells was checked and cells were adjusted to a density of 1 mio cells/ml in FACS buffer. 100 μl of these cell suspensions (containing 0.1 mio cells) were seeded into a 96 well round bottom plate. The plate was centrifuged for 4 min at 400×g and the supernatant was removed. Then 40 μl of the diluted NKG2D antibodies were added to the cells and incubated for additional 30 min at 4° C. After the incubation the cells were washed twice with 150 μl FACS buffer per well. Then 20 μl of the diluted secondary FITC anti-human Fc specific secondary antibody (Jackson ImmunoResearch, #109-096-098) was added to the cells. The cells were incubated for an additional 30 min at 4° C. To remove unbound antibody, the cells were washed again twice with 150 μl per well FACS buffer. To fix the cells 100 μl of FACS buffer containing 1% PFA were added to the wells. Before measuring the cells were re-suspended in 150 μl FACS buffer. The fluorescence was measured using a BD CantoII flow cytometer.
(In general: Flow cytometry measures light scatter and fluorescence of single cells or particles in a stream.)
On to B1, for which it took 3.84 nM to reach a half-maximal effect (EC50).

As to B2, the EC50 (as a rule, the midpoint of the concentration-response curve) amounted to 0.28 nM.

In turn, B3 registered an EC50 of 1.94 nM.

The molecule B4 registered an EC50 of 3.31 nM.

B5 yielded an EC50 of 1.32 nM.

The molecule B6 registered an EC50 of 133 nM.

Another assay deals with T2, di cyNKG2D ECD Fc avi (cynomolgus, biotinylated at the avi-tag).
T2 construct: Dimeric fusion of cynomolgus NKG2D ECD to the C-terminus of an avi-tagged human IgG1 Fc; also called recombinant cynomolgus NKG2D
T2 sequence (chain, as listed by the source limits assumed): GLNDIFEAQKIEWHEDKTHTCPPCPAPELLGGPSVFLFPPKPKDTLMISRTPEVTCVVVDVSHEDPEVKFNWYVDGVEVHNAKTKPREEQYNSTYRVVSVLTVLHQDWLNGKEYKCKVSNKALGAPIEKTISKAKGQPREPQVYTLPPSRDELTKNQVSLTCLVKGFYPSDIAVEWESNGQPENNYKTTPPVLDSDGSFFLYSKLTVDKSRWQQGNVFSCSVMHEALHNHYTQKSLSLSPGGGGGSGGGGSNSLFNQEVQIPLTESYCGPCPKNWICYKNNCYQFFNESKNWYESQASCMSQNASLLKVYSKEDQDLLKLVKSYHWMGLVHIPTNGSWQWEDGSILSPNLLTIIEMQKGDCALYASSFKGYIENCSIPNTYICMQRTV
Description: ELISA; biotinylated antigen on streptavidin plate. How it is done:
Nunc streptavidin coated plates (MicroCoat, #11974998001) were coated with 25 μl/well biotinylated his avi huNKG2D ECD (SEQ ID NO: 93) at a concentration of 0.5 μg/ml and incubated at room temperature (RT) for 1 hour. After washing with 3×90 μl/well PBST-buffer (10×PBS, Roche #11666789001+0.1% TWEEN® (polysorbate) 20), 25 μl anti-NKG2D antibodies were added in 1:3 dilutions starting at a concentration of 3 μg/ml or alternatively with a 1:30 dilution of the original sample and incubated 1 h at RT. After washing (3×90 μl/well PBST-buffer), 25 μl/well anti hu kappa chain HRP (horseradish peroxidase)-conjugate (Millipore, #AP502P, 1:2000) was added and incubated at RT for 1 h. After washing (3×90 μl/well PBST-buffer) 25 μl/well TMB (3,3′,5,5′-tetramethylbenzidine) substrate (Roche, #11835033001) was added.
Nunc streptavidin coated plates (MicroCoat, #11974998001) were coated with 25 μl/well biotinylated di cyNKG2D ECD Fc avi (SEQ ID NO: 97) at a concentration of 0.25 μg/ml and incubated at room temperature (RT) for 1 hour. The assay was performed as described above for human NKG2D.
B1 came in with an EC50 of 0.4 nM and an OD max of 0.9 OD.

Molecule B3 had an EC50 of 0.6 nM and an OD max of 1.4 OD.

B4: the response was half-maximal at 1.3 nM (EC50) and the OD max amounted to 1.6 OD.

On to B7, for which the EC50 is 0.4 nM and the OD max stood at 1.3 OD.

For the molecule B8, the EC50 stood at 0.3 nM and the OD max amounted to 1.7 OD.

As for B5, the EC50 was determined as 0.7 nM and the OD max is 0.9 OD.

With B6, the EC50 is 0.4 nM and the OD max was determined as 1.5 OD.

Another assay concerns the target T2, di cyNKG2D ECD Fc avi. Kind of assay: SPR Biacore; IgG captured by anti-Fab, antigen analyte. How it is done: (§1) Around 1500 resonance units (RU) of the capture antibody (10 μg/ml human Fab Capture Kit, GE Healthcare Life Sciences, #28958325) were coupled onto a CM5 chip (GE Healthcare, #BR-1005-30) using a BIACORE® B4000 instrument (GE Healthcare) at pH 5.0 by using an amine coupling kit supplied by GE Healthcare. The sample and system buffer was PBS-T (10 mM phosphate buffered saline including 0.05% TWEEN® (polysorbate) 20) pH 7.4. The flow cells were set to 25° C.—and the sample block set to 12° C.—and primed twice with running buffer. The antibody was captured by injecting a ˜10 μg/ml solution for 60 sec at a flow rate of 10 μl/min. Association was measured by injection of di huNKG2D ECD Fc avi (SEQ ID NO: 96) or di cyNKG2D ECD Fc avi (SEQ ID NO: 97) in various concentrations in solution for 180 s at a flow rate of 30 μl/min starting with 600 nM, 300 nM, 150 nM following […] dilutions. The dissociation phase was monitored for up to 450 s and triggered by switching from the sample solution to running buffer. The surface was regenerated by 2×90 s washing with a glycine pH 2.1 solution at a flow rate of 30 μl/min and an additional stabilization period of 180 s. Bulk refractive index differences were corrected by subtracting the response obtained from an anti-human Fab surface. Blank injections were also subtracted (=double referencing). For calculation of KD, kₐ and kd (see Table 8), the Langmuir 1:1 model in the BIACORE® 4000 Evaluation software 1.1 (GE Healthcare) or TraceDrawer 1.6.1 (Ridgeview Instruments AB) were used.
For orientation: Surface plasmon resonance follows binding to a sensor surface in real time, without labels.
In the case of B9, the Kd (usually the concentration at which binding is half-saturated) was 47 nM, the koff (commonly the rate constant with which the complex falls apart) was 0.00092 s⁻¹ and the kon (usually the second-order rate constant of association) came to 20000 M⁻¹ s⁻¹.

The molecule B1 displayed a Kd of 61 nM, a koff of 0.0047 s⁻¹ and a kon of 78000 M⁻¹ s⁻¹.

The molecule B2 gave a Kd of 8.4 nM, a koff of 0.00091 s⁻¹ and a kon of 110000 M⁻¹ s⁻¹.

The molecule B3 returned a Kd of 0.78 nM, a koff of 3.6e-05 s⁻¹ and a kon of 47000 M⁻¹ s⁻¹.

As for B4, the affinity, expressed as Kd, was 2.6 nM; the koff turned out to be 0.0001 s⁻¹; the kon was 40000 M⁻¹ s⁻¹.

On to B7, for which binding was put at a Kd of 21 nM, the koff worked out at 0.0008 s⁻¹ and the kon turned out to be 39000 M⁻¹ s⁻¹.

Turning to B8, the Kd was 4.5 nM, the koff turned out to be 0.00021 s⁻¹ and the kon was determined as 48000 M⁻¹ s⁻¹.

Take B5: the “fold difference of KD, cynomolgus vs human NKG2D” value was 187 fold.

B6 registered a Kd of 7.9 nM, a koff of 0.00064 s⁻¹ and a kon of 81000 M⁻¹ s⁻¹.

A further assay addresses T3, di huNKG2D ECD Fc avi (human, biotinylated at the avi-tag).
T3 construct: Dimeric fusion of human NKG2D ECD to the C-terminus of an avi-tagged human IgG1 Fc
The assay is described as above. How it is done:
as §1
With B9, the affinity, expressed as Kd, was 8.2 nM; the koff came to 0.00028 s⁻¹; the kon was 34000 M⁻¹ s⁻¹.

For B1, binding was put at a Kd of 110 nM, the koff was 0.0091 s⁻¹ and the kon was 83000 M⁻¹ s⁻¹.

The molecule B3 registered a Kd of 0.55 nM, a koff of 3.2e-05 s⁻¹ and a kon of 57000 M⁻¹ s⁻¹.

On to B4, for which the Kd was determined as 3.6 nM, the koff stood at 0.00016 s⁻¹ and the kon turned out to be 43000 M⁻¹ s⁻¹.

B7 returned a Kd of 29 nM, a koff of 0.0013 s⁻¹ and a kon of 43000 M⁻¹ s⁻¹.

Take B8: the Kd is 8.5 nM, the koff was 0.00045 s⁻¹ and the association rate constant (kon) turned out to be 52000 M⁻¹ s⁻¹.

In turn, B5 had a Kd of 3.8 nM, a koff of 0.00079 s⁻¹ and a kon of 210000 M⁻¹ s⁻¹.

As to B6, the Kd was 16 nM, the koff is 0.0013 s⁻¹ and the kon is 84000 M⁻¹ s⁻¹.

These data come from patent publication US20240067734A1 (Hoffmann-La Roche, published 2024).
